This note sets out measurements from PMC4064709, “Acceleration of an aldo-keto reductase by minimal loop engineering” (Protein Engineering, Design and Selection, 2014).

Common to all, as to assay: initial rates of NADH-dependent reduction
Type in all cases: biochemical, Yamadazyma tenuis

Data set [1] deals with T1, CCOC(=O)C(=O)c1ccc(C#N)cc1.
T1 construct: full-length enzyme; redesigned CtXR expressed in E. coli BL21 (DE3), purified by dye ligand chromatography
Particulars: apparent; 300 µM NADH; max 10 mM; W23 and K24 replaced by pentapeptide FAPRE. From the text:
(§1) initial rates of NADH-dependent reduction on Candida tenuis xylose reductase (CtXR)

A further data set deals with T2, CC(=O)c1ccc(Cl)cc1Cl.
T2 construct: full-length enzyme; redesigned CtXR expressed in E. coli BL21 (DE3), purified by dye ligand chromatography
Particulars: apparent; 300 µM NADH; max 5 mM; W23 and K24 replaced by pentapeptide FAPRE.
Excerpt: as §1

The subject of another data set is T3, CC(=O)c1ccccc1Cl.
T3 construct: full-length enzyme; redesigned CtXR expressed in E. coli BL21 (DE3), purified by dye ligand chromatography
Conditions: apparent; 300 µM NADH; max 10 mM; W23 and K24 replaced by pentapeptide FAPRE.
Excerpt: as §1

Data set [2] relates to T4, NC(=O)C1=CN([C@@H]2O[C@H](COP(=O)(O)OP(=O)(O)OC[C@H]3O[C@@H](n4cnc5c(N)ncnc54)[C@H](O)[C@@H]3O)[C@@H](O)[C@H]2O)C=CC1.
T4 construct: full-length enzyme; redesigned CtXR expressed in E. coli BL21 (DE3), purified by dye ligand chromatography
Particulars: apparent; co-substrate 2′-chloroacetophenone (max 10 mM), as in the wild-type row; W23 and K24 replaced by pentapeptide FAPRE; varied: cofactor.
Excerpt: as §1

Substrate in data set [3]: NC(=O)C1=CN([C@@H]2O[C@H](COP(=O)(O)OP(=O)(O)OC[C@H]3O[C@@H](n4cnc5c(N)ncnc54)[C@H](O)[C@@H]3O)[C@@H](O)[C@H]2O)C=CC1
Particulars: apparent; co-substrate 2′-chloroacetophenone (max 10 mM); varied: cofactor.
Excerpt: as §1

Substrate in data set [4]: CC(=O)c1ccccc1Cl
Particulars: apparent; 300 µM NADH; incomplete substrate saturation (max 10 mM).
Excerpt: as §1

Substrate in data set [5]: CCOC(=O)C(=O)c1ccc(C#N)cc1
Conditions: apparent; 300 µM NADH; incomplete substrate saturation (max 10 mM).
Excerpt: as §1

Substrate in data set [6]: CC(=O)c1ccc(Cl)cc1Cl
Conditions: apparent; 300 µM NADH; incomplete substrate saturation (max 5 mM).
Excerpt: as §1

In general, Km refers to the substrate concentration at which the rate is half of its maximum. Usually kcat stands for the number of substrate molecules converted per active site and unit of time at saturation. The kcat/Km is the second-order rate constant that governs catalysis at low substrate concentration.

“Candida tenuis xylose reductase (CtXR) (Yamadazyma tenuis; INS25PRE/K25A/W24F)”: the Km in data set [1] came out at 4 ± 1 mM; in the data set with CC(=O)c1ccc(Cl)cc1Cl, 4 ± 1 mM; with CC(=O)c1ccccc1Cl it was 5 ± 2 mM; in data set [2] it was 0.07 ± 0.02 mM. For the same molecule, the kcat in data set [1] stood at 17 ± 2 s⁻¹; in the data set on CC(=O)c1ccc(Cl)cc1Cl, 2.0 ± 0.4 s⁻¹; in the data set with CC(=O)c1ccccc1Cl it was 1.0 ± 0.2 s⁻¹; in data set [2], 1.0 ± 0.2 s⁻¹. Besides, the kcat/Km with CC(=O)c1ccccc1Cl worked out at 370 ± 50 M⁻¹ s⁻¹; in data set [2], 7600 ± 500 M⁻¹ s⁻¹.

B1: Candida tenuis xylose reductase (CtXR) (Yamadazyma tenuis) (protein)
chain: MSASIPDIKLSSGHLMPSIGFGCWKLANATAGEQVYQAIKAGYRLFDGAEDYGNEKEVGDGVKRAIDEGLVKREEIFLTSKLWNNYHDPKNVETALNKTLADLKVDYVDLFLIHFPIAFKFVPIEEKYPPGFYCGDGNNFVYEDVPILETWKALEKLVAAGKIKSIGVSNFPGALLLDLLRGATIKPAVLQVEHHPYLQQPKLIEFAQKAGVTITAYSSFGPQSFVEMNQGRALNTPTLFAHDTIKAIAAKYNKTPAEVLLRWAAQRGIAVIPKSNLPERLVQNRSFNTFDLTKEDFEEIAKLDIGLRFNDPWDWDNIPIFV
notes: full-length enzyme; redesigned CtXR expressed in E. coli BL21 (DE3), purified by dye ligand chromatography
For B1, the Km in data set [3] was determined as 0.11 ± 0.025 mM; in data set [4], 13 ± 4 mM; in data set [5], 5 ± 2 mM; in data set [6] it was 6 ± 2 mM. In addition, the kcat turned out to be 0.8 ± 0.1 s⁻¹ in data set [3], 0.4 ± 0.06 s⁻¹ in data set [5] and 2.7 ± 0.3 s⁻¹ in data set [6]. The figures for the kcat/Km in data set [3] and in data set [5] were 8700 ± 400 M⁻¹ s⁻¹ and 100 ± 10 M⁻¹ s⁻¹, respectively.
